Substitutions are numbered along the chain they refer to. In names and notes the source's numbering stands. Like-named read-outs stand apart in the source and are kept apart here. Blank lines part the entries; values can stand above or below the molecule they belong to.
Experiments:
[1] = biological target: Bacillus megaterium TnrA, full length (Bacillus megaterium); assay: crystal structure
[2] = biological target: Bacillus subtilis GlnK, wild type (Bacillus subtilis); assay: crystal structure
[3] = biological target: Bacillus subtilis TnrA, full length (Bacillus subtilis) (UniProt Q45666); assay: ITC
[4] = biological target: Bacillus subtilis GlnK, wild type (Bacillus subtilis); assay: SAXS
TnrA [5] = biological target: T1, TnrA (Bacillus subtilis, UniProt Q45666 1-110); assay: fluorescence polarization
T1 sequence: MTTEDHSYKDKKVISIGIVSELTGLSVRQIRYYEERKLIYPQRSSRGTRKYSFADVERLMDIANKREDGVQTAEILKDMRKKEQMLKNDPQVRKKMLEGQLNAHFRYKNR

GlnRΔ18 = biological target: T2, GlnRΔ18 (Bacillus subtilis, UniProt P37582 1-117, del118-135); assay: fluorescence polarization
T2 sequence: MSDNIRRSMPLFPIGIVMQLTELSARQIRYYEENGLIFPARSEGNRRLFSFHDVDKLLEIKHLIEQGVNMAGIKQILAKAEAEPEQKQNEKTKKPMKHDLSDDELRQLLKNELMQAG

TnrA [6] = biological target: T3, TnrA (Bacillus megaterium, UniProt G2RUZ1 1-108); assay: X-ray crystallography
T3 sequence: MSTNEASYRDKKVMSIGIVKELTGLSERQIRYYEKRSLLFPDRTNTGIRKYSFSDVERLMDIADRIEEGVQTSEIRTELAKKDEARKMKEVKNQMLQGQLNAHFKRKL

GS(E424K) = biological target: T4, GS(E424K) (Bacillus subtilis, UniProt P12425 1-444, E424K); assay: fluorescence polarisation
T4 sequence (looked up): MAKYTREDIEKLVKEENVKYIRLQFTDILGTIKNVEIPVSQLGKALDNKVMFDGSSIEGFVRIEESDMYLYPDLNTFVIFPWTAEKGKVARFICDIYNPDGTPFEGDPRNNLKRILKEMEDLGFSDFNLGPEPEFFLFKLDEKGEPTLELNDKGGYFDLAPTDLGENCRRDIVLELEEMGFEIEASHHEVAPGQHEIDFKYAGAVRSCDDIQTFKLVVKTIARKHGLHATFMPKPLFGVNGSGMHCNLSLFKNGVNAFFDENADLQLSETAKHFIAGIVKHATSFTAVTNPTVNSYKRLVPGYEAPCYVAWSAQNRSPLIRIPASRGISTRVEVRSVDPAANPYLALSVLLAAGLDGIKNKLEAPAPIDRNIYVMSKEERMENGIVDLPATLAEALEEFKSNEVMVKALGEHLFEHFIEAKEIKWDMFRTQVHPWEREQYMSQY

TnrA;GlnK = biological target: T5, TnrA;GlnK (Bacillus subtilis;Bacillus subtilis, UniProt Q45666;Q07428 1-110;1-116, |); assay: SAXS
T5 sequence 1: T1 sequence
T5 sequence 2: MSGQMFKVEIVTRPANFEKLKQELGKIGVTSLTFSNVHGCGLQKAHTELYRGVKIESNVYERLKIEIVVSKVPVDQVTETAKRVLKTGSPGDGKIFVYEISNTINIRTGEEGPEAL

GlnR FL = biological target: T6, GlnR FL (Bacillus subtilis, UniProt P37582 1-135); assay: fluorescence polarization
T6 sequence: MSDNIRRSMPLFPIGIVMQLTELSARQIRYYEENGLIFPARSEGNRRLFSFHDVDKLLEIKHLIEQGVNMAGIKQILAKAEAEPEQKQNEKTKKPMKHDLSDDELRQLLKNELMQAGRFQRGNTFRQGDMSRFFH

[7] = biological target: T7, Bacillus subtilis glutamine synthetase, wild type, full length (Bacillus subtilis, UniProt P12425 1-444); assay: crystal structure
T7 sequence (looked up): T4 sequence (looked up) with K424E

[8] = biological target: T7, Bacillus subtilis glutamine synthetase, …; assay: crystal structure; remark: listed apart in the source
crystal structure = biological target: the molecule itself; assay: crystal structure

Molecule: Bacillus megaterium TnrA, full length (natural protein)
- stoichiometry N [1]: 2

B1: 17mer FP (dsDNA)
DNA 1: TGTAAGATTTCCTGACA
DNA 2: TGTCAGGAAATCTTACA
- Kd (TnrA [5]): 15.7 ± 0.9 nM
- Kd (GlnRΔ18): 8.1 ± 0.3 nM

B2: 21mer site (crystal) (dsDNA)
DNA 1: CGTGTAAGATTTCCTGACACG
DNA 2: CGTGTCAGGAAATCTTACACG
- binding result (TnrA [6]): binds

B4: 17mer SAXS (dsDNA)
DNA 1: TGTCAGATAATCTGACA
DNA 2: TGTCAGATTATCTGACA
- binding result (TnrA;GlnK): binds

B5: 21mer FP (dsDNA)
DNA 1: CGTGTAAGATTTCCTGACACG
DNA 2: CGTGTCAGGAAATCTTACACG
- Kd (TnrA [5]): 11.6 ± 1.8 nM
- Kd (GlnRΔ18): 6 ± 0.9 nM
- binding signal (GlnR FL): > 10 fold weaker than GlnRΔ18

B6: GlnRΔ18 (domain or fragment, Bacillus subtilis, UniProt P37582 1-117, looked up)
chain: T2 sequence
- stoichiometry N (crystal structure): 2

Next, values leading:

- stoichiometry N [2]: 3
- stoichiometry N (GlnK subunit per TnrA subunit) [3]: 0.5
- stoichiometry N [4]: 3
Molecule: Bacillus subtilis GlnK, wild type (natural protein)

- binding result (GS(E424K)): binds
B3: TnrA(K108E) (natural protein, Bacillus subtilis, UniProt Q45666 1-110, looked up)
chain: T1 sequence with K108E

- binding result [7]: binds
Molecule: EILKDMRKKEQMLKNDPQVRKKMLEGQLNAHFRYKNR (domain or fragment, Bacillus subtilis, UniProt Q45666 74-110, looked up) [TnrA(74–110)]

- binding result [8]: binds
Molecule: RFQRGNTFRQGDMSRFFH [GlnR C-terminal peptide]

Reference: publication PMC4335299 (Genes & Development, 2015)
